# Measured values: PMC5127057
# Tests used:
# [1] = target: Human Neutrophil Elastase (human) (UniProt P08246); assay: stoichiometry of inhibition by titration of residual protease activity; 200 nM HNE or 300 nM PR3 mixed with varied Siropin, molar ratios from 0 to 10, 5 min at 37 °C, then substrate, absorbance at 405 nm for 30 min; x-intercept of linear regression; 20 mM Tris-HCl, 500 mM NaCl, pH 8.0
# [2] = target: Human Proteinase 3 (human) (UniProt P24158); assay: as above
# [3] = target: Human Neutrophil Elastase (human) (UniProt P08246); assay: progress curve kinetics of protease inhibition; pseudo-first-order conditions, Siropin 1 to tenfold over protease, 200 µM substrate, HNE (200 nM) or PR3 (300 nM), 37 °C, 405 nm for 20 min; k obs against Siropin concentration, slope k'app corrected for substrate competition (Km 114 µM HNE, 270 µM PR3)
# [4] = target: Human Proteinase 3 (human) (UniProt P24158); assay: as above
# Sequence of UniProt P24158 (P24158 28-248): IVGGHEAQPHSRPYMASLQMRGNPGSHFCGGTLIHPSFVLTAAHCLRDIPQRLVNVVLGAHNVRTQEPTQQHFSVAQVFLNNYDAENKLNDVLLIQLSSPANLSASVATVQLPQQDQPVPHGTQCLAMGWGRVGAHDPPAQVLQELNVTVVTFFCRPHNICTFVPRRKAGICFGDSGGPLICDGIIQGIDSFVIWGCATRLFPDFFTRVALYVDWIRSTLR
# Sequence of UniProt P08246 (P08246 30-267): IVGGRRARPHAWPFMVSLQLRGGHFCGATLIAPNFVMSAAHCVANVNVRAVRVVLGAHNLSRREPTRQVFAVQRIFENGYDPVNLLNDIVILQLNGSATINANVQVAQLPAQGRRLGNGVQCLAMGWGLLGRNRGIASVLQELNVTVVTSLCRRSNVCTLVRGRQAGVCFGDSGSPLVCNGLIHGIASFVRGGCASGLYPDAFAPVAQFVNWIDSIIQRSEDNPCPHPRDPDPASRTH
stoichiometry of inhibition (SI) [1],stoichiometry of inhibition (SI) [2],kon [3] [M⁻¹ s⁻¹],kon [4] [M⁻¹ s⁻¹],Substance
1.76,1.1,84000,260000,Siropin 1 (natural protein)
1.82,1.1,77000,110000,Siropin 2 (natural protein)
